# Assay: yeast display, Sf9 membrane polyspecificity reagent, FACS + sequencing; frameworks hold sequencing errors
# Procedure, shortened: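 Sorting gates, low and high (top ~1%), were placed on anti-HA fluorescence to track expression and on streptavidin fluorescence to track reagent binding. A clone's polyreactivity label is taken from the gate it came out of. The reagent was 10% biotinylated, detergent-solubilized Sf9 membrane, applied for 1 hour at 4 °C to galactose-induced yeast display cells.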
row,Sequence,polyreactivity (PSR sort gate)
1,QVQLVESGGGIVQAGGSLRLSCAASYYDMGWYRQAHGKERELVASISSGGSTNYADSVKGRFTISRDNAKNTVYLQMNSLKPEVTAVYYCAAVVADGVWVKIADEYWGQGTQVTVSS,low polyreactivity
2,QVQLVESGGGIVQAGGSLRLSCASSGLIFKFYAMGWYRQAPGKERELVASIRRSGDNTYYADSVKRRFTISRDNAKNTVYLQMKSLKPEDTAVYYCAAELLYDYVEYYYWGQGTQVTVAS,high polyreactivity
3,QVQLVESGGGIVQAGGSLRLSCDGSGSTFTYYAMGWYRQEPGKEWEFVAAISRRGGSTYYADSVKGRFTISRDNAKNTVYFQLNSLKPEDTAVSDCNVVIYSYGINGRYDYWGQGTQVTVSS,high polyreactivity
4,QVQLVESGGGIVQAGGSLRLSCTASGFTFTYYAMGSYRQAPGKERELVAAISWSGGSTYYADSVKGRFTISRDNAKNTVYLQMNSLKPEDTAVYYCNKVGRAIGPYDYWGQGTQVTVSS,high polyreactivity
5,QVQLVESGGGIVQAGGSLRLSSAASGFTFYYYAIGWYRQAPGKERELVAAISSGGSTYYADSVKGRFTISRDNAKNTVYLQMNSLKPEDTAVYYCAADSLYYRYDYWGQGTQVTVSS,low polyreactivity
6,QVQLVESGGGIVQAGGSLRLSSAASGGIFPYYVMGRYRQAPGKERELVAAINSGGTTYYADSVKGRFTISRDNAKNTVYLQMNSLKPEDTAVYYCAAEAYKHGVWDYDYWGQGTQVTVSS,low polyreactivity
7,QVQLVESGGGIVQAGGSLRLSSAASGRIFDGYTKGWYRHEPGKERQLVAAITYRSGRTYYADSVKGRFTISRDNAKNTVYLQMHSLKPDDTAVYYCAAPWYRGGNTESYYWGQGTQVTVSS,high polyreactivity
8,QVQLVESGGGIVQAGGSLRLSSAASGSTFVYNAMGSYRQAPGKERELVASITRSGSSTYYADSVKGRFTISRDNAKNTVYLQMNSLKPEDSAVYYCAVRYYVLSYYRYYYWGQGTQVTVSS,low polyreactivity
9,QVQLVESGGGIVQAGGSLRLTCAASGRIFPTYAMGWYRQAPGKEREMVATINGDGGSTYYAYSVKGRFTISRDNPKNTVYLHMNSLKPEDTSVDYCAKSYPFAAEYDYWGQGSQVTVSS,low polyreactivity
10,QVQLVESGGGIVQAGGSLRVSCAASGFTFHKYAMGWYRQAPGTERELVAVISQSASSTYYADSVKGRFTISRDNAKNTVYFQMNGLKPEDTAVYYCNAKYYRYNRRNYWGQVTQVTVSS,high polyreactivity
11,QVQLVESGGGIVQAGRSLRLSCAASGRIFYTNVMGWYRQAPGKERELDAAISSAGTTYYADSVKGRFTISRDNAKNTVYLQMNSLKPEDTAVYYCAADQVAYYGFDYWGQVTQVTVSS,low polyreactivity
12,QVQLVESGGGIVQAGVILRLSCAATGITFWNNAMRWYRQARGKERELVATISSNGGRTYYADSVKGRFTISRDNAKNTVYLQMNSLKPEDTAVYYCKARQVLYGLYLRAYPYEYWGQGTQVTVSS,low polyreactivity
13,QVQLVESGGGIVQARGSLRLSCAASGSILSSYAMGWYTQAPGKERELVAAISKSGTRTYYADSVKGRFTISRDNAKNTVYLQMNSLKPEDTAVYYCAARYYSRTTAMDYWGQGTQVTVSS,high polyreactivity
14,QVQLVESGGGIVQEGGSLSLSCAASGRIFFDYAMGWYRQAPGKERELVADIDWSGGITYYADSVKGRYTISRDNAKNTVYLQMNSLNPEDTAVYYCAVEFDELYPTTAYGEFEYWGQVTQVTVSS,high polyreactivity
15,QVQLVESGGGKVQAGGSLRLSCAASGFTFSNAMGWYRQAPGKERELVAAITRIGGSTFYADSVKGRFTISRDNAKNTVYLQLNSLKPEDTAVYSCAADYGLPLYEGYYWGQGTQVTVSS,low polyreactivity
16,QVQLVESGGGKVQAGGSLRLSCAASGRTFRWYAMGWYRQAPGKERELVAAITSSSSTNYADSVKGRFTISRDNAKNTVYLQMNSLKPEDTAVYYCAKGWNWYDLGESGYWGQGTQVTVSS,low polyreactivity
17,QVQLVESGGGKVQAGGSLRLSCAASGRTFWVYAMGWYRPAPGKERELVASISWSVGSTYYADSVKGRFTISRDNAKNTVYLQMNSLKPEDTAVYYCAADPSPYGDEYDYWGQGTQVTVSS,low polyreactivity
18,QVQLVESGGGKVQAGRSHRLTCAASGSIFYTYPMGWYRQAPGKERELVAAIRSSDGSTYYADSVKGRFTISRDYAKNTVYIQMNSLKSEYTGVYYCAAENIPGEGYYHFEYDYWGQGTQVTVSS,low polyreactivity
19,QVQLVESGGGLAQAGGSLRLRCAASGRTFPSYAMGWYSQAPGKERELVAAISRSGARTYYADSVKGRFTISRDNAKTTVYLQMNSLKPDDTAVYYCAAVGSTRYEYWGQGSQVTVSS,high polyreactivity
20,QVQLVESGGGLAQAGGSLRLSCAASGRIIYFNAMGWYRQAPGKEREFVAAISSSGNTYYADSVKGRFTISLDNAKNTVYLQMNSLKPEDTEVYYCDAAIYSYYPASGYKRYDYWGQGTQVTVSS,high polyreactivity
21,QVQLVESGGGLCQAGGSLRLSCAASGRTFYKNTMGWYRQAPGKERELVAAISIRGGSTYFADTVKGRFTISRDNAKNTFYLQMNSLKPEDTAVYYCNVVYQKAARIVDFDYWGQGTQVTLSS,high polyreactivity
22,QVQLVESGGGLDHAGGRLRLSCAASGSIFIYYAMGWYRQAPGKERELVAAISNGGSTNYADSVKGRFTFSRDNAKNTVYLQMNSLKPEDTAVYYCNTDWGYFHGVRAYLGYGYWGQGTQVTVSS,low polyreactivity

row,Sequence,polyreactivity (PSR sort gate)
1,QVQLVESGGGLDHAGGSLRLSCAASGYTLTDYVMGWYRQAPGKQRELVAAIDWRDGTTYADSVKGRFTISRDNAKNTVYLQFNILKPEDTAVYFCGTDELLTSPRYPEYDYWGQGTQVTVSS,low polyreactivity
2,QVQLVESGGGLDLAGGSLRLTCAASGSTFTYYAMGWYRQAPGKERELVAAISWRGASTYYADSVKGRFTISRDNAKNTVYLQMNSLNPEDTAVNYCNAVKQRSSIFDYWGQGTQVTVSS,low polyreactivity
3,QVQLVESGGGLDPAGGSLRLSCAASGFTFYRNAMGWYRQAPGKERELVAGITRSGGSTYYADSVKGRFTISRDNAKNTVYLQMNSLKPEDTAVYYCNKAYGGVKYSGTYDYWGQGTQVTVSS,high polyreactivity
4,QVQLVESGGGLDQAAGSLPLSCAASGLIFPVYAMGWYRQAPGKAREFVASIWRGGTTYYADSVKGRFTISRDNAKNTVYLQMNSLNPEDTAVYYCAARYYPSGLVFPFTKYDYWGQGTQVTVSS,high polyreactivity
5,QVQLVESGGGLDQAGGSHRLSCAASGSTFPYPNTMGWYRQAPGKERELVAVISRTGGSTFYADSVKWRFTISRDNAKNTVYFQMNSLKPEDTAVYYCAARRDGWTFWKYDYWGHGTQVTVSS,high polyreactivity
6,QVQLVESGGGLDQAGGSHRLSCAASGSTFYPYAMRWYRQAPGKERELVAGITVIDGSTYYADSVKGRFTMSRDNAKNPVYFQMNSLKPEDTAVYYCAVDGPNQVQEYGYWGQGTQVTVSS,low polyreactivity
7,QVQLVESGGGLDQAGGSLLLSCAASGFTFGPYAMGWYRQAPGKERELVATIRSGYSTNYADSVKGRFTISRDNAKNTVYLQMNSLKPEDTAVYYFNREGWHYGPYGYWGQGTQVNVSS,low polyreactivity
8,QVQLVESGGGLDQAGGSLPLSCAASGRILQGYAMGWYRQAPGKEREMVASIRTGGTTNYADSVKGRFTISRDNAKNTVYLQMNSLKPEDTAVYYCNRGYDSYYGRYYYWGQGTQVTVSS,high polyreactivity
9,QVQLVESGGGLDQAGGSLRLICAASGRTFATNTMVWYRQAPGKERELVAAITFSGGSTYYADSVKGRFTISRDNEKNSVYLQMNSLKPEETAVYYCNVRSPYYSYRYRYGYWGQGTQVTVSS,high polyreactivity
10,QVQLVESGGGLDQAGGSLRLICAASGRTFYYAMGWYRQAPGKERYADSVKGRFTISRDNAKNTVYLQMNSLKPEDTAVYYCAAKVPEPPSLDESDYWGQGTQVTVSS,low polyreactivity
11,QVQLVESGGGLDQAGGSLRLICAASGRTFYYNVMGWYRQAPGKERELVAAISTGVSTNYADSVKGRFTISRDNAKNTVYLQMNSQKPEDTAVYYCNSRSYRWYRPVYRYDYWGQGTQVTVSS,high polyreactivity
12,QVQLVESGGGLDQAGGSLRLRCAASGSTFLINAMGWYRQAPGKESELVAAISSSSGNTYYADSVKWRFTISRDNAKNTVYLQMNSLKPEDTAVYYCKAVFTRGVTQYDHYYWGQGTQVTVSS,high polyreactivity
13,QVQLVESGGGLDQAGGSLRLSCAASGFIFAYYAMGWYRQAPGKERELVAAISSGGRTYYADSVKGRFTISRDNAKNTVYLQLNSLKPEDTAVYYCNKRFYPEHYYWGQGTQVTVSS,high polyreactivity
14,QVQLVESGGGLDQAGGSLRLSCAASGFIFGPNAMGWYRQAPGKERELVAAISWIGSSTYYADSVKGRFTISRDNAKNTVYIKMNSLTPEDTPVYYCAADSSERRLLDFDYWGQGTQVTVSS,low polyreactivity
15,QVQLVESGGGLDQAGGSLRLSCAASGFIFYRYVMGWYRQAPGKERELVATISSGGSTNYADSVKGRFTISRDNAKNTVYLQMNSLKPEDTAVYYCAKRRYFYNYYEYDYWGQGTQVTVSS,high polyreactivity
16,QVQLVESGGGLDQAGGSLRLSCAASGFIFYYYAMGWYRQAPGKEREFVAGISRRGGSSYYADSVKGRFTISRDNAKNTVYLQMNSLKPEDTAVYYCIVDFHWQRFHHKSAAYDYWGQGTQVTVSS,high polyreactivity
17,QVQLVESGGGLDQAGGSLRLSCAASGFIYWYYAMGWYRQAPVKERELVAAITRGGSTNYADSVKGRFTISRDNAKNTVYFQKNRLKPEDTSVYYCNASWRLVSSGFDGGYWGEGTQVTVSS,high polyreactivity
18,QVQLVESGGGLDQAGGSLRLSCAASGFTFRWYAMGWYRQAPGKERELVAAISRGGNTNYADSVKGRFTISRDNAKNTVYLQMNSLKPEDSAVYYCARNTGPYLGYYHRYYWGHGTQVTVSS,high polyreactivity
19,QVQLVESGGGLDQAGGSLRLSCAASGFTFVGNAMGWYRQAPGKERELVATITSGGNTKYADSVKGRFTISRDNAKNTVYLQMNSLKPEDTAVYYCAAAKYNYRRFNYWGQGTQVTVSS,low polyreactivity
20,QVQLVESGGGLDQAGGSLRLSCAASGFTFYRNAMGWYRQAPGKERELVAAITSGGSTYYADSVKGRFTISRDNAKNTVYLQMNSLKPEDTAVYYCAAYVWSGWGHWFYYWGQGTQVTVSS,high polyreactivity
21,QVQLVESGGGLDQAGGSLRLSCAASGGIFQKYAMGWYRQAPGQERELVAAISYSTTRTYYADSVKGRFTISRDNAKKTVYLQMNSLKPEDTAVYYCAARGYFWSSYKYDYWGQGTQVTVSS,high polyreactivity

# — the nanobody polyreactivity screen of Harvey et al. (2022)
